The results in this text go back to patent publication US12247072 (ASHER BIOTHERAPEUTICS, dated 2025).

B1: xhCD8.1-hIL21 v2.7 (other)
VH: QVQLVQSGAEVKKPGSSVKVSCKASGGTFSSYAISWVRQAPGQGLEWMGGIIPGYATANYAQKFQGRVTITADESTSTAYMELSSLRSEDTAVYYCARDAAGIRLFADWGQGTLVTVSS
VL: DIQMTQSPSSLSASVGDRVTITCRASQSIYGALNWYQQKPGKAPKLLIYGASNLQSGVPSRFSGSGSGTDFTLTISSLQPEDFATYYCQSTYTAPWTFGGGTKVEIK
chain: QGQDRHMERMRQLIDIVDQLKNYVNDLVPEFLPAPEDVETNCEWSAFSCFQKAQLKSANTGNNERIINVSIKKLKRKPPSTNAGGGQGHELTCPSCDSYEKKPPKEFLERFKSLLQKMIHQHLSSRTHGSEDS
notes: Human IgG1/kappa, knob-into-hole, L234A/L235A/G237A
B2: xhCD8.1-hIL21 v2.34 (other)
VH: QVQLVQSGAEVKKPGSSVKVSCKASGGTFSSYAISWVRQAPGQGLEWMGGIIPGYATANYAQKFQGRVTITADESTSTAYMELSSLRSEDTAVYYCARDAAGIRLFADWGQGTLVTVSS
VL: DIQMTQSPSSLSASVGDRVTITCRASQSIYGALNWYQQKPGKAPKLLIYGASNLQSGVPSRFSGSGSGTDFTLTISSLQPEDFATYYCQSTYTAPWTFGGGTKVEIK
chain: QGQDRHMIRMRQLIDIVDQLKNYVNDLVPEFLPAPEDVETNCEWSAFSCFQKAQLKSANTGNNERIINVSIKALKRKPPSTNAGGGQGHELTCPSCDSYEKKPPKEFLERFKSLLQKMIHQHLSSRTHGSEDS
notes: as for B1
B3: xhCD8.1-hIL21 v2.20 (other)
VH: QVQLVQSGAEVKKPGSSVKVSCKASGGTFSSYAISWVRQAPGQGLEWMGGIIPGYATANYAQKFQGRVTITADESTSTAYMELSSLRSEDTAVYYCARDAAGIRLFADWGQGTLVTVSS
VL: DIQMTQSPSSLSASVGDRVTITCRASQSIYGALNWYQQKPGKAPKLLIYGASNLQSGVPSRFSGSGSGTDFTLTISSLQPEDFATYYCQSTYTAPWTFGGGTKVEIK
chain: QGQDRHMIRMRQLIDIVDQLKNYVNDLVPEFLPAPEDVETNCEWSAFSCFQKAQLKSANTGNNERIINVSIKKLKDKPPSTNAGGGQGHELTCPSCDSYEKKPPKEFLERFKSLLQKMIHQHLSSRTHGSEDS
notes: as for B1
B4: xhCD8.1-hIL21 v2.46 (other)
VH: QVQLVQSGAEVKKPGSSVKVSCKASGGTFSSYAISWVRQAPGQGLEWMGGIIPGYATANYAQKFQGRVTITADESTSTAYMELSSLRSEDTAVYYCARDAAGIRLFADWGQGTLVTVSS
VL: DIQMTQSPSSLSASVGDRVTITCRASQSIYGALNWYQQKPGKAPKLLIYGASNLQSGVPSRFSGSGSGTDFTLTISSLQPEDFATYYCQSTYTAPWTFGGGTKVEIK
chain: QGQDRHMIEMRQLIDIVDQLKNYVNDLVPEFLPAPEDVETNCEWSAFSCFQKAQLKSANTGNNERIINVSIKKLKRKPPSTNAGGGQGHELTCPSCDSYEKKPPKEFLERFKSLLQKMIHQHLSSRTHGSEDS
notes: as for B1
B5: xhCD8.1-hIL21 v2.41 (other)
VH: QVQLVQSGAEVKKPGSSVKVSCKASGGTFSSYAISWVRQAPGQGLEWMGGIIPGYATANYAQKFQGRVTITADESTSTAYMELSSLRSEDTAVYYCARDAAGIRLFADWGQGTLVTVSS
VL: DIQMTQSPSSLSASVGDRVTITCRASQSIYGALNWYQQKPGKAPKLLIYGASNLQSGVPSRFSGSGSGTDFTLTISSLQPEDFATYYCQSTYTAPWTFGGGTKVEIK
chain: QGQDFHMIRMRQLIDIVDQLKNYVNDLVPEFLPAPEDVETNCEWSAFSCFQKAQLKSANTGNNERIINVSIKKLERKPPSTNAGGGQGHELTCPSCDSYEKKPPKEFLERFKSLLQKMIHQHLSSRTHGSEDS
notes: as for B1
B6: xhCD8.1-hIL21 v2.36 (other)
VH: QVQLVQSGAEVKKPGSSVKVSCKASGGTFSSYAISWVRQAPGQGLEWMGGIIPGYATANYAQKFQGRVTITADESTSTAYMELSSLRSEDTAVYYCARDAAGIRLFADWGQGTLVTVSS
VL: DIQMTQSPSSLSASVGDRVTITCRASQSIYGALNWYQQKPGKAPKLLIYGASNLQSGVPSRFSGSGSGTDFTLTISSLQPEDFATYYCQSTYTAPWTFGGGTKVEIK
chain: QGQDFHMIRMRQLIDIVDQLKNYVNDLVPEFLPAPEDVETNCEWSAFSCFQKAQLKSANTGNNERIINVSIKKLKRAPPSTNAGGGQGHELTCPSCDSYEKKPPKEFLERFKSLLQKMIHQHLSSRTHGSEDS
notes: as for B1
B7: xhCD8.1-hIL21 v2.58 (other)
VH: QVQLVQSGAEVKKPGSSVKVSCKASGGTFSSYAISWVRQAPGQGLEWMGGIIPGYATANYAQKFQGRVTITADESTSTAYMELSSLRSEDTAVYYCARDAAGIRLFADWGQGTLVTVSS
VL: DIQMTQSPSSLSASVGDRVTITCRASQSIYGALNWYQQKPGKAPKLLIYGASNLQSGVPSRFSGSGSGTDFTLTISSLQPEDFATYYCQSTYTAPWTFGGGTKVEIK
chain: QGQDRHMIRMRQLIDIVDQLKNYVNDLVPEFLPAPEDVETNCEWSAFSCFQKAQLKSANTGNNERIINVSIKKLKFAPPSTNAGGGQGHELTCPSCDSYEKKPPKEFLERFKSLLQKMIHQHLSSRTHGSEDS
notes: as for B1
B8: xhCD8.1-hIL21 v2.31 (other)
VH: QVQLVQSGAEVKKPGSSVKVSCKASGGTFSSYAISWVRQAPGQGLEWMGGIIPGYATANYAQKFQGRVTITADESTSTAYMELSSLRSEDTAVYYCARDAAGIRLFADWGQGTLVTVSS
VL: DIQMTQSPSSLSASVGDRVTITCRASQSIYGALNWYQQKPGKAPKLLIYGASNLQSGVPSRFSGSGSGTDFTLTISSLQPEDFATYYCQSTYTAPWTFGGGTKVEIK
chain: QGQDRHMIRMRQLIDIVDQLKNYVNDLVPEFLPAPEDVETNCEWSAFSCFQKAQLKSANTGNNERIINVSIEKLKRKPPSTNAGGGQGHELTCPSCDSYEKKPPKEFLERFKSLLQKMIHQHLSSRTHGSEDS
notes: as for B1
B9: xhCD8.1-hIL21 v2.29 (other)
VH: QVQLVQSGAEVKKPGSSVKVSCKASGGTFSSYAISWVRQAPGQGLEWMGGIIPGYATANYAQKFQGRVTITADESTSTAYMELSSLRSEDTAVYYCARDAAGIRLFADWGQGTLVTVSS
VL: DIQMTQSPSSLSASVGDRVTITCRASQSIYGALNWYQQKPGKAPKLLIYGASNLQSGVPSRFSGSGSGTDFTLTISSLQPEDFATYYCQSTYTAPWTFGGGTKVEIK
chain: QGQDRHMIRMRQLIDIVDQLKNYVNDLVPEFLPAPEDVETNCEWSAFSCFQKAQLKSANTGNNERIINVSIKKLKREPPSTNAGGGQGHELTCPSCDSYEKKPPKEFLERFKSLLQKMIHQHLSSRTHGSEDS
notes: as for B1
B10: xhCD8.1-hIL21 v2.40 (other)
VH: QVQLVQSGAEVKKPGSSVKVSCKASGGTFSSYAISWVRQAPGQGLEWMGGIIPGYATANYAQKFQGRVTITADESTSTAYMELSSLRSEDTAVYYCARDAAGIRLFADWGQGTLVTVSS
VL: DIQMTQSPSSLSASVGDRVTITCRASQSIYGALNWYQQKPGKAPKLLIYGASNLQSGVPSRFSGSGSGTDFTLTISSLQPEDFATYYCQSTYTAPWTFGGGTKVEIK
chain: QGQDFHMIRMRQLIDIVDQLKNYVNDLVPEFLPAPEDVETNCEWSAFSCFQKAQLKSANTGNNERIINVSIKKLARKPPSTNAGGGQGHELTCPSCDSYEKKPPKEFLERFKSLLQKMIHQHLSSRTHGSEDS
notes: as for B1
B11: xhCD8.1-hIL21 v2.9 (other)
VH: QVQLVQSGAEVKKPGSSVKVSCKASGGTFSSYAISWVRQAPGQGLEWMGGIIPGYATANYAQKFQGRVTITADESTSTAYMELSSLRSEDTAVYYCARDAAGIRLFADWGQGTLVTVSS
VL: DIQMTQSPSSLSASVGDRVTITCRASQSIYGALNWYQQKPGKAPKLLIYGASNLQSGVPSRFSGSGSGTDFTLTISSLQPEDFATYYCQSTYTAPWTFGGGTKVEIK
chain: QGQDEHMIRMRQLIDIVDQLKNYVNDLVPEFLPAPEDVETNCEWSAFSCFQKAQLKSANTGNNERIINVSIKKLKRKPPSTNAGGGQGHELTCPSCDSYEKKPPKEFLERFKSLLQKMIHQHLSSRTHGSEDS
notes: as for B1
B12: xhCD8.1-hIL21 v2.30 (other)
VH: QVQLVQSGAEVKKPGSSVKVSCKASGGTFSSYAISWVRQAPGQGLEWMGGIIPGYATANYAQKFQGRVTITADESTSTAYMELSSLRSEDTAVYYCARDAAGIRLFADWGQGTLVTVSS
VL: DIQMTQSPSSLSASVGDRVTITCRASQSIYGALNWYQQKPGKAPKLLIYGASNLQSGVPSRFSGSGSGTDFTLTISSLQPEDFATYYCQSTYTAPWTFGGGTKVEIK
chain: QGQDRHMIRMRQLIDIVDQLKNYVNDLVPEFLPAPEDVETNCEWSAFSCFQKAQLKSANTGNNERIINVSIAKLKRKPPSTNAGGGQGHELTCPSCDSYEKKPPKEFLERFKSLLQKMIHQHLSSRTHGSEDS
notes: as for B1
B13: xhCD8.1-hIL21 v2.39 (other)
VH: QVQLVQSGAEVKKPGSSVKVSCKASGGTFSSYAISWVRQAPGQGLEWMGGIIPGYATANYAQKFQGRVTITADESTSTAYMELSSLRSEDTAVYYCARDAAGIRLFADWGQGTLVTVSS
VL: DIQMTQSPSSLSASVGDRVTITCRASQSIYGALNWYQQKPGKAPKLLIYGASNLQSGVPSRFSGSGSGTDFTLTISSLQPEDFATYYCQSTYTAPWTFGGGTKVEIK
chain: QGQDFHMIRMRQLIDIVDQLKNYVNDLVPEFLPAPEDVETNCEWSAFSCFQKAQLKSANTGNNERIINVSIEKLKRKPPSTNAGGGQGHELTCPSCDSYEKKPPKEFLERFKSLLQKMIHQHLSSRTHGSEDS
notes: as for B1
B14: xhCD8.1-hIL21 v2.33 (other)
VH: QVQLVQSGAEVKKPGSSVKVSCKASGGTFSSYAISWVRQAPGQGLEWMGGIIPGYATANYAQKFQGRVTITADESTSTAYMELSSLRSEDTAVYYCARDAAGIRLFADWGQGTLVTVSS
VL: DIQMTQSPSSLSASVGDRVTITCRASQSIYGALNWYQQKPGKAPKLLIYGASNLQSGVPSRFSGSGSGTDFTLTISSLQPEDFATYYCQSTYTAPWTFGGGTKVEIK
chain: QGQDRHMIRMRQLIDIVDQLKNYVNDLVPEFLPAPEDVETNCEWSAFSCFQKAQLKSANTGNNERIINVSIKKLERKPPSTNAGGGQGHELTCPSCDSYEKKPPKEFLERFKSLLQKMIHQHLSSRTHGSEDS
notes: as for B1
B15: xhCD8.1-hIL21 v2.37 (other)
VH: QVQLVQSGAEVKKPGSSVKVSCKASGGTFSSYAISWVRQAPGQGLEWMGGIIPGYATANYAQKFQGRVTITADESTSTAYMELSSLRSEDTAVYYCARDAAGIRLFADWGQGTLVTVSS
VL: DIQMTQSPSSLSASVGDRVTITCRASQSIYGALNWYQQKPGKAPKLLIYGASNLQSGVPSRFSGSGSGTDFTLTISSLQPEDFATYYCQSTYTAPWTFGGGTKVEIK
chain: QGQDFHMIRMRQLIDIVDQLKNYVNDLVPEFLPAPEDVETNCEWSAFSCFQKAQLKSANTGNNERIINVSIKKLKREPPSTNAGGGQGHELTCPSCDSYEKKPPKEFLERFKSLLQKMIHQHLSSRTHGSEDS
notes: as for B1
B16: xhCD8.1-hIL21 v2.38 (other)
VH: QVQLVQSGAEVKKPGSSVKVSCKASGGTFSSYAISWVRQAPGQGLEWMGGIIPGYATANYAQKFQGRVTITADESTSTAYMELSSLRSEDTAVYYCARDAAGIRLFADWGQGTLVTVSS
VL: DIQMTQSPSSLSASVGDRVTITCRASQSIYGALNWYQQKPGKAPKLLIYGASNLQSGVPSRFSGSGSGTDFTLTISSLQPEDFATYYCQSTYTAPWTFGGGTKVEIK
chain: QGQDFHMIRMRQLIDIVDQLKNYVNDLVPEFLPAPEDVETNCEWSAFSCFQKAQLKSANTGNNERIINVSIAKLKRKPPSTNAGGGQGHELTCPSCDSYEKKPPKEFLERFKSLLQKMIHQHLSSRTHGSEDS
notes: as for B1
B17: xhCD8.1-hIL21 v2.42 (other)
VH: QVQLVQSGAEVKKPGSSVKVSCKASGGTFSSYAISWVRQAPGQGLEWMGGIIPGYATANYAQKFQGRVTITADESTSTAYMELSSLRSEDTAVYYCARDAAGIRLFADWGQGTLVTVSS
VL: DIQMTQSPSSLSASVGDRVTITCRASQSIYGALNWYQQKPGKAPKLLIYGASNLQSGVPSRFSGSGSGTDFTLTISSLQPEDFATYYCQSTYTAPWTFGGGTKVEIK
chain: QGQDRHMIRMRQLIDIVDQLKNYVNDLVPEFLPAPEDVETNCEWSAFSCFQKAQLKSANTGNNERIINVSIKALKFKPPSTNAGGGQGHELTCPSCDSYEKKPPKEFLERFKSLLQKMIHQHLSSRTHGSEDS
notes: as for B1
B18: xhCD8.1-hIL21 v2.43 (other)
VH: QVQLVQSGAEVKKPGSSVKVSCKASGGTFSSYAISWVRQAPGQGLEWMGGIIPGYATANYAQKFQGRVTITADESTSTAYMELSSLRSEDTAVYYCARDAAGIRLFADWGQGTLVTVSS
VL: DIQMTQSPSSLSASVGDRVTITCRASQSIYGALNWYQQKPGKAPKLLIYGASNLQSGVPSRFSGSGSGTDFTLTISSLQPEDFATYYCQSTYTAPWTFGGGTKVEIK
chain: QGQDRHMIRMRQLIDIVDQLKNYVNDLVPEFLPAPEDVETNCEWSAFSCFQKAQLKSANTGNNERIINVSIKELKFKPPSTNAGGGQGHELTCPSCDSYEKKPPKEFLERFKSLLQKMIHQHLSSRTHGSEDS
notes: as for B1
B19: xhCD8.1-hIL21 v2.28 (other)
VH: QVQLVQSGAEVKKPGSSVKVSCKASGGTFSSYAISWVRQAPGQGLEWMGGIIPGYATANYAQKFQGRVTITADESTSTAYMELSSLRSEDTAVYYCARDAAGIRLFADWGQGTLVTVSS
VL: DIQMTQSPSSLSASVGDRVTITCRASQSIYGALNWYQQKPGKAPKLLIYGASNLQSGVPSRFSGSGSGTDFTLTISSLQPEDFATYYCQSTYTAPWTFGGGTKVEIK
chain: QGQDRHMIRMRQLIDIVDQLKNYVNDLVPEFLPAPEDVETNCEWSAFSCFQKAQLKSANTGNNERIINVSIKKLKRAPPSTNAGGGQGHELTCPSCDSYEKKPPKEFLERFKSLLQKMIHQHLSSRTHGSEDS
notes: as for B1
B20: xhCD8.1-hIL21 v2.45 (other)
VH: QVQLVQSGAEVKKPGSSVKVSCKASGGTFSSYAISWVRQAPGQGLEWMGGIIPGYATANYAQKFQGRVTITADESTSTAYMELSSLRSEDTAVYYCARDAAGIRLFADWGQGTLVTVSS
VL: DIQMTQSPSSLSASVGDRVTITCRASQSIYGALNWYQQKPGKAPKLLIYGASNLQSGVPSRFSGSGSGTDFTLTISSLQPEDFATYYCQSTYTAPWTFGGGTKVEIK
chain: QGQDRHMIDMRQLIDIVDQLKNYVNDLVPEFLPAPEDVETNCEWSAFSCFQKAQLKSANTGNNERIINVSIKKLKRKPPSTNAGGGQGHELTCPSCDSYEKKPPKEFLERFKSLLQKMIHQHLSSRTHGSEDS
notes: as for B1
B21: xhCD8.1-hIL21 v2.32 (other)
VH: QVQLVQSGAEVKKPGSSVKVSCKASGGTFSSYAISWVRQAPGQGLEWMGGIIPGYATANYAQKFQGRVTITADESTSTAYMELSSLRSEDTAVYYCARDAAGIRLFADWGQGTLVTVSS
VL: DIQMTQSPSSLSASVGDRVTITCRASQSIYGALNWYQQKPGKAPKLLIYGASNLQSGVPSRFSGSGSGTDFTLTISSLQPEDFATYYCQSTYTAPWTFGGGTKVEIK
chain: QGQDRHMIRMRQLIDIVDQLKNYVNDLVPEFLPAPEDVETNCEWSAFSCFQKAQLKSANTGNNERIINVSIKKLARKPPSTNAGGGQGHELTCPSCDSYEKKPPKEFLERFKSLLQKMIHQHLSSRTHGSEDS
notes: as for B1

Sequence of Recombinant human IL-21R, extracellular domain fused to 8x Histidine tag (generated in house) (Q9HBE5 other isoform, or with tags, fused parts or gaps limits assumed): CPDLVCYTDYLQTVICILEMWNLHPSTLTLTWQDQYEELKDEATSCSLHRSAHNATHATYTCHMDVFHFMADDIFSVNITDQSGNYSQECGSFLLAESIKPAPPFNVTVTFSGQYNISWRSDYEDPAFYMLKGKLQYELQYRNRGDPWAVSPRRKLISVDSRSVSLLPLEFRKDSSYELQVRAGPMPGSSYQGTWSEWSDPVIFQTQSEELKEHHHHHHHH

This assay has as its target Recombinant human IL-21R, extracellular domain fused to 8x Histidine tag (generated in house) (human, UniProt Q9HBE5 20-232). Description: SPR, 37 C. (In general: In SPR one partner is held on a chip, and binding of the other changes the refractive index at the surface.)
Experimental: Protein was not captured on flow cell 1 to serve as a reference surface. A serial dilution was generated for human IL-21R, in HBS-P+ buffer supplemented with 1 g/L BSA, starting at nominal concentrations between 20-5 µM, followed by six to seven 5-fold serial dilutions, and flowed over the surface-captured fusion protein for 2 minutes at 30 µL/min. Buffer was also flowed over the surface to serve as a blank subtraction. Dissociation was monitored for 5-10 minutes, and the anti-hIgG-Fc surface was regenerated with three 30 to 60-seconds injections of 75 mM phosphoric acid before recapturing fusion protein in each subsequent binding cycle. Binding data were double-referenced and analyzed by Biacore® Evaluation Software version 3.2 using steady-state affinity for very weak interactions, or when possible, a 1:1 Langmuir with mass transport model to determine kinetic rate constants (k_a, k_d) and K_D.
On to B1, for which the equilibrium dissociation constant (Kd) is 156 nM.
The same measure, in the same setting: with B2 the figure was 2 nM.
As to B3, the binding result is reported as “no binding (tested: highest concentration tested)”.
As to B4, the binding result was “no binding (tested: highest concentration tested)”.
As for B5, the dissociation constant Kd stood at 104 nM.
Same read-out and setting: next, B6: 125 nM.
Consider B7, for which the dissociation constant Kd amounted to 420 nM.
The same measure, in the same setting: next, B8: 3.4 nM.
Take B9: the Kd is 2.8 nM.
The same measure, in the same setting: with B10 the figure was 54.7 nM; with B11, 420 nM; with B12, 0.419 nM.
Still for that read-out and setting: next, B13: 614 nM.
Take B14: the Kd amounted to 1.3 nM.
Still for that read-out and setting: with B15 the figure was 601 nM; with B16, 66.9 nM.
With B17, the binding result is “no binding (tested: highest concentration tested)”.
On the same count and under the same terms, with B18 the entry was “no binding (tested: highest concentration tested)”.
On to B19, for which the dissociation constant Kd was 0.693 nM.
With B20, the binding result was “no binding (tested: highest concentration tested)”.
As to B21, the Kd worked out at 0.236 nM.

A word on the Kd: it is the free concentration of one partner at which half of the binding sites on the other are occupied at equilibrium, for simple one-to-one binding.
